One assay has as its target HLA-A*01:01. Kind of assay: IEDB peptide-MHC binding, purified MHC/competitive/radioactivity; filed as Kd, often an IC50 or EC50 that approximates it; ≥ and ≤ were set here for values at or beyond the usual limits of such assays.
A further assay deals with HLA-A*23:01. Described as above.
Assay [1] deals with HLA-A*24:02. The assay is described as above.
The next assay deals with HLA-A*26:01. The description is as above.
Another assay has as its target HLA-A*29:02. Described as above.
A further assay deals with HLA-A*30:02. Described as above.
Assay [2] has as its target HLA-A*24:02. Kind of assay: IEDB peptide-MHC binding, purified MHC/competitive/fluorescence; ≥ and ≤ were set here for values at or beyond the usual limits of such assays.
The next assay concerns the target HLA-B*07:02. The experiment in a line: IEDB peptide-MHC binding, purified MHC/competitive/radioactivity; filed as Kd, often an IC50 or EC50 that approximates it; ≥ and ≤ were set here for values at or beyond the usual limits of such assays.
In a further assay the target is HLA-B*51:01. Described as above.
For a further assay, the target named is HLA-B*44:03. The description is as above. The note with it: source organism: Dengue virus 3 Martinique/1243/1999.
In the next assay the target is HLA-B*15:01. Described as above.
The target of the next assay is HLA-B*40:01. Described as above.
For a further assay, the target named is HLA-A*02:01. Kind of assay: IEDB peptide-MHC binding, purified MHC/competitive/fluorescence; ≥ and ≤ were set here for values at or beyond the usual limits of such assays. To be noted: source organism: Vaccinia virus.
[3] abbreviates: source organism: SARS coronavirus Tor2.
The mark [4] stands for this setting: source organism: Mammarenavirus lassaense.
The mark [5] stands for this setting: source organism: Dengue virus 4 Philippines/H241/1956.
[6] abbreviates: source organism: Dengue virus 2 Jamaica/1409/1983.
The mark [7] stands for this setting: source organism: Sudan ebolavirus.
Where [8] appears, read: source organism: Mammarenavirus brazilense.
Setting [9] is: source organism: Dengue virus 3 Martinique/1243/1999.
Setting [10] is: source organism: Dengue virus 1 Brazil/97-11/1997.
Setting [11] is: source organism: Zaire ebolavirus.
The mark [12] stands for this setting: source organism: Vaccinia virus.
Setting [13] is: source organism: Lymphocytic choriomeningitis virus (strain Armstrong).
[14] abbreviates: source organism: Mammarenavirus whitewaterense.

This note sets out measurements from the Immune Epitope Database (IEDB).

Bounds are passed on as bounds.

What is called Kd is the free concentration of one partner at which half of the binding sites on the other are occupied at equilibrium, for simple one-to-one binding. As for LYNSTFFSTF, the Kd turned out to be 10.3 µM with HLA-A*01:01 (setting [3]); 0.965 nM with HLA-A*23:01 (setting [3]); 0.635 nM with HLA-A*24:02 [1] (setting [3]); 0.834 µM with HLA-A*26:01 (setting [3]); 622 nM in the assay with HLA-A*29:02 (setting [3]); 1160 nM with HLA-A*30:02 (setting [3]).
MCPFLFLAV: the Kd with HLA-A*01:01 (setting [4]) was 0.492 µM; with HLA-A*23:01 (setting [4]), at least 51100 nM; with HLA-A*24:02 [1] (setting [4]), at least 77500 nM; with HLA-A*26:01 (setting [4]), at least 77.9 µM; with HLA-A*29:02 (setting [4]), 1690 nM; with HLA-A*30:02 (setting [4]) it was at least 31200 nM.
Take MGLLCLTLF: in the assay with HLA-A*23:01 (setting [5]), the Kd was 451 nM.
The term IC50 denotes the point on the concentration scale where inhibition reaches its midpoint. Turning to MILPMSRAF, the IC50 with HLA-A*24:02 [2] (source organism: Mus musculus) was found to be 1.75 µM.
Turning to MPVTHSSAAQ, the Kd with HLA-B*07:02 (setting [6]) was at least 20100 nM; in the assay with HLA-B*51:01 (setting [6]), at least 69.6 µM.
In the case of NIDATSTGNY, the Kd was 0.11 µM in the assay with HLA-A*01:01 (setting [3]); at least 70000 nM in the assay with HLA-A*23:01 (setting [3]); at least 70300 nM with HLA-A*24:02 [1] (setting [3]); 0.897 µM in the assay with HLA-A*26:01 (setting [3]); 5520 nM with HLA-A*29:02 (setting [3]); 1420 nM with HLA-A*30:02 (setting [3]).
As to NRKAIDFLL, the IC50 with HLA-A*24:02 [2] (setting [7]) is at least 72.4 µM.
Turning to NYMPYVFTLL, the Kd with HLA-A*01:01 (setting [3]) was at least 40.5 µM; in the assay with HLA-A*23:01 (setting [3]), 1.11 nM; with HLA-A*24:02 [1] (setting [3]) it was 1.03 nM; in the assay with HLA-A*26:01 (setting [3]) it was at least 69.7 µM; in the assay with HLA-A*29:02 (setting [3]) it was 128 nM; in the assay with HLA-A*30:02 (setting [3]) it was 2550 nM.
On to PKAQREIFS, for which the IC50 with HLA-A*24:02 [2] (source organism: Variola virus) was 30.1 µM.
In the case of PYLKATKQI, the values for the Kd with HLA-A*23:01 (setting [8]), with HLA-A*24:02 [1] (setting [8]) and in the assay with HLA-A*29:02 (setting [8]) were 131 nM, 564 nM and at least 78900 nM, respectively.
Consider QWFFDLPLPW, for which the values for the Kd in the assay with HLA-A*23:01 (setting [9]), with HLA-A*24:02 [1] (setting [9]) and with HLA-B*44:03 were 14.7 nM, 74.8 nM and 2640 nM, respectively.
For the sequence QWSLFFFVY, the Kd is 8.06 µM with HLA-A*01:01 (setting [3]); at least 77800 nM in the assay with HLA-A*23:01 (setting [3]); at least 44400 nM with HLA-A*24:02 [1] (setting [3]); 17.6 µM with HLA-A*26:01 (setting [3]); 13.4 nM in the assay with HLA-A*29:02 (setting [3]); 1370 nM with HLA-A*30:02 (setting [3]).
Regarding RPGYFTQTA, the Kd with HLA-B*07:02 (setting [10]) came to 4.78 nM.
On to RQMEGEGVL, for which the Kd with HLA-B*15:01 (setting [9]) was 18.8 nM; with HLA-B*40:01 (setting [9]), 43.5 nM.
In the case of RSNAALGAIF, the dissociation constant (Kd) turned out to be 3420 nM in the assay with HLA-A*30:02 (setting [6]), 184 nM with HLA-B*07:02 (setting [6]) and 41.1 nM with HLA-B*15:01 (setting [6]).
As for SPMLYQLLE, in the assay with HLA-A*24:02 [2] (source organism: Vaccinia virus Copenhagen), the IC50 came out at 64.6 µM.
In the case of SPSVEVKLPD, in the assay with HLA-B*07:02 (setting [5]), the Kd was 205 nM.
SYSLFDMSKF: the Kd with HLA-A*01:01 (setting [3]) was at least 25.1 µM; with HLA-A*23:01 (setting [3]) it was 49.7 nM; with HLA-A*26:01 (setting [3]), 6.12 µM; in the assay with HLA-A*29:02 (setting [3]) it was 677 nM; with HLA-A*30:02 (setting [3]), 770 nM.
In the case of SYYATSYLE, the IC50 with HLA-A*24:02 [2] (setting [7]) stood at 4.36 µM. This lies in the single-digit micromolar range.
TFSIPLGVI displayed an IC50 with HLA-A*24:02 [2] (setting [11]) of 0.0849 µM.
Still for that read-out and setting: the result for TKKNLTRKI reads at least 155 µM.
As to TPEAKNSTFL, in the assay with HLA-B*07:02 (setting [5]), the Kd was 1370 nM.
Take TPEGEVGAIA: in the assay with HLA-B*07:02 (setting [10]), the Kd was 14700 nM.
As to TPKGTVMDII, the Kd with HLA-B*07:02 (source organism: Dengue virus 3 Singapore/8120/1995) worked out at 608 nM.
For the sequence TPQASTTEAI, the Kd is 45.3 nM with HLA-B*07:02 (setting [9]) and at least 22.9 µM with HLA-B*51:01 (setting [9]).
Consider TRAADEPPL, for which the values for the IC50 with HLA-A*02:01 and with HLA-A*24:02 [2] (setting [12]) were at least 1.4 mM and at least 169 µM, respectively.
As for VEDEEFWKL, the Kd with HLA-B*40:01 (source organism: Dengue virus 3 Sri Lanka/1266/2000) was 18.1 nM.
In the case of VERAVLDDGI, the Kd with HLA-B*40:01 (setting [10]) stood at 1680 nM.
For VPFCSHHFHQ, the Kd is at least 20900 nM with HLA-B*07:02 (setting [10]) and at least 69.6 µM with HLA-B*51:01 (setting [10]).
VYFESFVREF: the Kd with HLA-A*23:01 (setting [13]) worked out at 8.89 nM; in the assay with HLA-A*24:02 [1] (setting [13]), 59.7 nM; in the assay with HLA-A*29:02 (setting [13]), 184 nM.
Regarding WYMWLGARFL, the figures for the Kd with HLA-A*23:01 (setting [6]) and with HLA-A*24:02 [1] (setting [6]) were 49.1 nM and 6.33 nM, respectively.
In turn, YLLFGIKCI gave an IC50 with HLA-A*24:02 [2] (setting [12]) of 7.15 µM.
Consider YPALMPLY, for which the Kd in the assay with HLA-B*07:02 (source organism: Hepatitis B virus) is at least 10000 nM.
YYGLVTEQF: the Kd with HLA-A*23:01 (setting [14]) was 1.47 nM; in the assay with HLA-A*24:02 [1] (setting [14]), 3.27 nM; in the assay with HLA-A*29:02 (setting [14]), 95.5 nM.
